Results published in the supplement of paper PMC9112550, “Optimization of the antimicrobial peptide Bac7 by deep mutational scanning” (BMC Biology, 2022).

Test system: Escherichia coli TOP10
Assay: shrunken log2 fold change of peptide-encoding DNA abundance (4.5 h post-induction vs induction); higher = less antimicrobial activity (less host growth inhibition)
Settings: time post-induction: 4.5 h; library: site-saturation at positions 5, 18, 19, 20
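Also: peptides expressed intracellularly from a pBAD plasmid library in pooled LB shake-flask culture, induced with 0.3% L-arabinose, DNA abundance read by NGS, three biological replicates, DESeq2 with apeglm shrinkage.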

Row | Sequence | shrunken log2 fold change
1 | RRIRFRPPRLPRPRPRPEFKPRP | -0.0568
2 | RRIRERPPRLPRPRPRPLQLPRP | -0.33
3 | RRIRHRPPRLPRPRPRPEQDPRP | 0.057
4 | RRIRERPPRLPRPRPRPRILPRP | -0.202
5 | RRIRYRPPRLPRPRPRPILDPRP | -0.253
6 | RRIRFRPPRLPRPRPRPVNHPRP | -0.384
7 | RRIRFRPPRLPRPRPRPGVPPRP | 0.0248
8 | RRIRARPPRLPRPRPRPLSEPRP | 0.172
9 | RRIRARPPRLPRPRPRPTNDPRP | 0.297
10 | RRIRYRPPRLPRPRPRPQEQPRP | -0.0134
11 | RRIRWRPPRLPRPRPRPAWLPRP | 0.61
12 | RRIRMRPPRLPRPRPRPSLSPRP | 0.22
13 | RRIRQRPPRLPRPRPRPWYGPRP | -0.191
14 | RRIRWRPPRLPRPRPRPCCHPRP | -0.169
15 | RRIRCRPPRLPRPRPRPGWIPRP | 0.198
16 | RRIRYRPPRLPRPRPRPYFRPRP | -0.836
17 | RRIRERPPRLPRPRPRPICRPRP | 0.0559
18 | RRIRQRPPRLPRPRPRPGNFPRP | 0.0262
19 | RRIRLRPPRLPRPRPRPHAQPRP | 0.133
20 | RRIRDRPPRLPRPRPRPKPDPRP | 0.306
21 | RRIRSRPPRLPRPRPRPATKPRP | 0.161
22 | RRIRDRPPRLPRPRPRPWCFPRP | -0.0692
23 | RRIRRRPPRLPRPRPRPANQPRP | 0.0564
24 | RRIRARPPRLPRPRPRPFLMPRP | 0.791
25 | RRIRLRPPRLPRPRPRPTSTPRP | -0.194

Row | Sequence | shrunken log2 fold change
26 | RRIRGRPPRLPRPRPRPKHGPRP | 0.699
27 | RRIRFRPPRLPRPRPRPEIPPRP | 0.163
28 | RRIRGRPPRLPRPRPRPSFDPRP | 0.44
29 | RRIRDRPPRLPRPRPRPEQWPRP | -0.0491
30 | RRIRHRPPRLPRPRPRPNMCPRP | -0.126
31 | RRIRARPPRLPRPRPRPGNMPRP | -0.0598
32 | RRIRPRPPRLPRPRPRPLQIPRP | -0.161
33 | RRIRSRPPRLPRPRPRPDPHPRP | -0.151
34 | RRIRGRPPRLPRPRPRPKFCPRP | 0.23
35 | RRIRKRPPRLPRPRPRPNRIPRP | 0.0866
36 | RRIRMRPPRLPRPRPRPDLLPRP | 2.73
37 | RRIRWRPPRLPRPRPRPGWGPRP | 0.534
38 | RRIRKRPPRLPRPRPRPRDVPRP | 0.316
39 | RRIRQRPPRLPRPRPRPHSSPRP | -0.271
40 | RRIRLRPPRLPRPRPRPPIWPRP | 0.0261
41 | RRIRFRPPRLPRPRPRPMDDPRP | -0.182
42 | RRIRSRPPRLPRPRPRPKLRPRP | 0.111
43 | RRIRKRPPRLPRPRPRPMCEPRP | 0.12
44 | RRIRMRPPRLPRPRPRPRCYPRP | -0.00529
45 | RRIRMRPPRLPRPRPRPSVNPRP | -0.0473
46 | RRIRWRPPRLPRPRPRPHFIPRP | -0.349
47 | RRIRGRPPRLPRPRPRPSLHPRP | 0.316
48 | RRIRERPPRLPRPRPRPHPGPRP | 0.033
49 | RRIRQRPPRLPRPRPRPVRYPRP | 0.0926
50 | RRIRCRPPRLPRPRPRPMNMPRP | -0.445

Row | Sequence | shrunken log2 fold change
51 | RRIRMRPPRLPRPRPRPDPEPRP | 0.769
52 | RRIRNRPPRLPRPRPRPCYPPRP | -0.318
53 | RRIRGRPPRLPRPRPRPTIMPRP | 0.365
54 | RRIRRRPPRLPRPRPRPQSDPRP | 0.244
55 | RRIRFRPPRLPRPRPRPVMYPRP | -0.195
56 | RRIRLRPPRLPRPRPRPCGAPRP | 0.356
57 | RRIRNRPPRLPRPRPRPRYRPRP | -0.0876
58 | RRIRTRPPRLPRPRPRPTFGPRP | 0.0406
59 | RRIRYRPPRLPRPRPRPVQHPRP | -0.247
60 | RRIRPRPPRLPRPRPRPVDEPRP | 0.0247
61 | RRIRCRPPRLPRPRPRPDGIPRP | -0.0101
62 | RRIRLRPPRLPRPRPRPHQIPRP | -0.249
63 | RRIRRRPPRLPRPRPRPTFCPRP | 0.0676
64 | RRIRRRPPRLPRPRPRPLIQPRP | 0.256
65 | RRIRARPPRLPRPRPRPERDPRP | 0.613
66 | RRIRERPPRLPRPRPRPIMVPRP | -0.023
67 | RRIRDRPPRLPRPRPRPIFYPRP | 0.0295
68 | RRIRPRPPRLPRPRPRPVAYPRP | -0.173
69 | RRIRPRPPRLPRPRPRPITYPRP | -0.782
70 | RRIRLRPPRLPRPRPRPHVGPRP | -0.442
71 | RRIRDRPPRLPRPRPRPLEAPRP | 0.679
72 | RRIRTRPPRLPRPRPRPPFCPRP | 0.188
73 | RRIRCRPPRLPRPRPRPAHDPRP | 0.031
74 | RRIRDRPPRLPRPRPRPYTPPRP | -0.95
75 | RRIRQRPPRLPRPRPRPGDTPRP | -0.223

Row | Sequence | shrunken log2 fold change
76 | RRIRKRPPRLPRPRPRPSQAPRP | -0.0142
77 | RRIRSRPPRLPRPRPRPRHGPRP | 0.196
78 | RRIRMRPPRLPRPRPRPNGCPRP | 0.254
79 | RRIRWRPPRLPRPRPRPCQPPRP | -0.118
80 | RRIRWRPPRLPRPRPRPTSAPRP | 0.389
81 | RRIRIRPPRLPRPRPRPFACPRP | -0.0925
82 | RRIRLRPPRLPRPRPRPSIRPRP | -0.727
83 | RRIRQRPPRLPRPRPRPAMGPRP | 0.127
84 | RRIRHRPPRLPRPRPRPLWWPRP | 0.237
85 | RRIRWRPPRLPRPRPRPKDIPRP | -0.0886
86 | RRIRWRPPRLPRPRPRPNEVPRP | 0.0902
87 | RRIRARPPRLPRPRPRPSAEPRP | 0.976
88 | RRIRQRPPRLPRPRPRPKGIPRP | 0.0655
89 | RRIRQRPPRLPRPRPRPHSRPRP | -0.17
90 | RRIRWRPPRLPRPRPRPFYRPRP | -0.179
91 | RRIRNRPPRLPRPRPRPRHQPRP | -0.038
92 | RRIRERPPRLPRPRPRPETEPRP | 0.192
93 | RRIRGRPPRLPRPRPRPCQWPRP | 0.0251
94 | RRIRMRPPRLPRPRPRPVKKPRP | 0.0481
95 | RRIRPRPPRLPRPRPRPHRDPRP | -0.0367
96 | RRIRIRPPRLPRPRPRPACLPRP | -0.228
97 | RRIRARPPRLPRPRPRPTRRPRP | 1.1
98 | RRIRLRPPRLPRPRPRPPDWPRP | 0.427
99 | RRIRERPPRLPRPRPRPCTHPRP | -1.36
100 | RRIRSRPPRLPRPRPRPLSNPRP | -0.00773

Row | Sequence | shrunken log2 fold change
101 | RRIRNRPPRLPRPRPRPDCLPRP | 0.0127
102 | RRIRRRPPRLPRPRPRPKHSPRP | 0.0683
103 | RRIRLRPPRLPRPRPRPRCEPRP | 0.194
104 | RRIRFRPPRLPRPRPRPGLIPRP | -0.0301
105 | RRIRWRPPRLPRPRPRPNYNPRP | -0.752
106 | RRIRPRPPRLPRPRPRPQGQPRP | 0.0372
107 | RRIRFRPPRLPRPRPRPVAKPRP | -0.0163
108 | RRIRHRPPRLPRPRPRPKMDPRP | -0.014
109 | RRIRQRPPRLPRPRPRPPKYPRP | -0.313
110 | RRIRMRPPRLPRPRPRPVCQPRP | 0.13
111 | RRIRRRPPRLPRPRPRPIDHPRP | -0.12
112 | RRIRQRPPRLPRPRPRPIHNPRP | -0.464
113 | RRIRLRPPRLPRPRPRPMKNPRP | -0.303
114 | RRIRNRPPRLPRPRPRPWGQPRP | 0.0191
115 | RRIRDRPPRLPRPRPRPKPQPRP | 0.111
116 | RRIRRRPPRLPRPRPRPQQRPRP | 0.795
117 | RRIRDRPPRLPRPRPRPEWQPRP | 0.0508
118 | RRIRHRPPRLPRPRPRPKIIPRP | -1.08
119 | RRIRRRPPRLPRPRPRPTACPRP | 0.636
120 | RRIRARPPRLPRPRPRPEVNPRP | 0.291
121 | RRIRSRPPRLPRPRPRPGGSPRP | 0.0707
122 | RRIRVRPPRLPRPRPRPWYVPRP | -0.971
123 | RRIRHRPPRLPRPRPRPIMSPRP | -0.161
124 | RRIRQRPPRLPRPRPRPMREPRP | 0.0211
125 | RRIRTRPPRLPRPRPRPQMGPRP | -0.0284

Row | Sequence | shrunken log2 fold change
126 | RRIRWRPPRLPRPRPRPSMQPRP | -0.0561
127 | RRIRDRPPRLPRPRPRPQKYPRP | -0.432
128 | RRIRIRPPRLPRPRPRPMVTPRP | -0.018
129 | RRIRKRPPRLPRPRPRPMVSPRP | 0.0111
130 | RRIRDRPPRLPRPRPRPGEGPRP | 1.41
131 | RRIRNRPPRLPRPRPRPEVMPRP | 0.0307
132 | RRIRWRPPRLPRPRPRPTAAPRP | 1.65
133 | RRIRKRPPRLPRPRPRPDQFPRP | -0.0391
134 | RRIRDRPPRLPRPRPRPQECPRP | 0.0795
135 | RRIRSRPPRLPRPRPRPSWDPRP | 0.364
136 | RRIRPRPPRLPRPRPRPSSRPRP | -0.863
137 | RRIRNRPPRLPRPRPRPEAPPRP | 3.17
138 | RRIRGRPPRLPRPRPRPASWPRP | 2.63
139 | RRIRLRPPRLPRPRPRPYYKPRP | -0.569
140 | RRIRMRPPRLPRPRPRPPMTPRP | 0.789
141 | RRIRSRPPRLPRPRPRPYWLPRP | -0.248
142 | RRIRERPPRLPRPRPRPNFIPRP | -0.442
143 | RRIRYRPPRLPRPRPRPPMWPRP | 0.53
144 | RRIRERPPRLPRPRPRPPLYPRP | 0.127
145 | RRIRCRPPRLPRPRPRPQVMPRP | -0.464
146 | RRIRGRPPRLPRPRPRPAQKPRP | 0.721
147 | RRIRSRPPRLPRPRPRPHYEPRP | -0.573
148 | RRIRARPPRLPRPRPRPMYWPRP | -0.0443
149 | RRIRFRPPRLPRPRPRPFSRPRP | 0.184
150 | RRIRWRPPRLPRPRPRPKGVPRP | 0.109
